From publication doi:10.1101/795211 (bioRxiv, 2019)

T1: His-tagged AtYefM co-expressed with AtYoeB from the pET-Duet vector (Agrobacterium tumefaciens strC58, UniProt Q7CY23 1-84)
T1 sequence (looked up): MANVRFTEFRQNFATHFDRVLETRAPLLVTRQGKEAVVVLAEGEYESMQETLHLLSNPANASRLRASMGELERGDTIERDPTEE

B1: His-AtYefM, YefM antitoxin from Agrobacterium tumefaciens expressed alone (pET15b), His affinity tag kept (natural protein, Agrobacterium tumefaciens strC58, UniProt Q7CY23 1-84, looked up)
chain: MANVRFTEFRQNFATHFDRVLETRAPLLVTRQGKEAVVVLAEGEYESMQETLHLLSNPANASRLRASMGELERGDTIERDPTEE
B2: YoeB toxin from Agrobacterium tumefaciens (AtYoeB), expressed alone, after removal of the GST-His affinity tag (natural protein)
chain: MKLVWTLSSWDDYEFWQRTDARMVEKINDLIRNAKRTPFAGLGKPEPLKGDMAGYWSRRITAEHRFVYRVSGSGSEQRLEVIQCRFHYQ
B3: AtYoeB co-expressed with His-AtYefM from the pET-Duet vector (natural protein)
chain: MKLVWTLSSWDDYEFWQRTDARMVEKINDLIRNAKRTPFAGLGKPEPLKGDMAGYWSRRITAEHRFVYRVSGSGSEQRLEVIQCRFHYQ

Columns and labels:
SEC-MALS = biological target: the molecule itself; experiment: SEC-MALS
[1] = biological target: T1, His-tagged AtYefM co-expressed with …; experiment: SEC-MALS

Row | Binder | stoichiometry N (SEC-MALS) | stoichiometry N [1]
1 | B1 | 2 | –
2 | B2 | 2 | –
3 | B3 | – | 1
